Test results from patent US20240228596A1 (VIB VZW, published 2024).

Biological target: SARS-COV-1 spike protein on VSV-delG pseudotyped particles (SARS-COV-1, UniProt P59594 14-1255)
Test: cell-based or functional assay

B1: VHH72_h1_S56A (VHH)
VHH: EVQLVESGGGLVQPGGSLRLSCAASGRTFSEYAMGWFRQAPGKEREFVATISWSGGATYYTDSVKGRFTISRDNAKNTVYLQMNSLRPEDTAVYYCAAAGLGTVVSEWDYDYDYWGQGTLVTVSS
IC50 Mean VSV-dG-spike SARS-COV-1: 0.013 µg/mL
